PMC5291076, “Analyzing native membrane protein assembly in nanodiscs by combined non-covalent mass spectrometry and synthetic biology” (eLife, 2017)

Tests used:
[1] = target: Proteorhodopsin (green variant); assay: native MS; LILBID-MS of the membrane protein in MSP1E3D1 (DMPG) nanodiscs; 50 mM ammonium acetate pH 6.8; anionic mode; laser pulse energy between 9.5 and 23 mJ; unlabeled and (KcsA) 15N, 2H labeled samples
[2] = target: Proteorhodopsin (green variant); assay: native MS; LILBID-MS of PR synthesized in the presence of DH7PC and GDN and purified with 0.1% DH7PC; no nanodiscs
[3] = target: the molecule itself; assay: native MS; LILBID-MS of the membrane protein in MSP1E3D1 (DMPG) nanodiscs; 50 mM ammonium acetate pH 6.8; anionic mode; laser pulse energy between 9.5 and 23 mJ; unlabeled and (KcsA) 15N, 2H labeled samples
[4] = target: the molecule itself; assay: native MS; LILBID-MS of hHv1-VSD in nanodiscs of MSP1D1ΔH5 (19.49 kDa, His6-tag cleaved); unlabeled and 15N, 2H labeled samples

“Proteorhodopsin (green variant) (natural protein)” was tested, and the stoichiometry N [1] was < 6 and the stoichiometry N [2] was 2.

B1: pH-gated potassium channel KcsA (natural protein)
chain: SALHWRAAGAATVLLVIVLLAGSYLAVLAERGAPGAQLITYPRALWWSVETATTVGYGDLYPVTLWGRLVAVVVMVAGITSFGLVTAALATWFVGREQERRGHFVRHSEKAAEEAYTRTTRALHERFDRLERMLDDNRR
modifications: in some samples uniformly 15N, 2H isotope labeled
notes: pH-gated potassium channel KcsA; theoretical mass of the construct 21.33 kDa (22.70 kDa labeled); The printed mass (21.33 kDa) is larger than the natural chain, so tags or extra residues beyond the StrepII tag may be present; source: cell-free (CECF, E. coli A19 lysate), co-translationally inserted into nanodiscs, purified (Streptactin)
With B1 the “stoichiometry N” value [3] was 4.

B2: Phospho-N-acetylmuramyl-pentapeptide-transferase B.subtilis (enzyme, B. subtilis, UniProt Q03521 1-324, looked up)
chain: MLEQVILFTILMGFLISVLLSPILIPFLRRLKFGQSIREEGPKSHQKKSGTPTMGGVMIILSIIVTTIVMTQKFSEISPEMVLLLFVTLGYGLLGFLDDYIKVVMKRNLGLTSKQKLIGQIIIAVVFYAVYHYYNFATDIRIPGTDLSFDLGWAYFILVLFMLVGGSNAVNLTDGLDGLLSGTAAIAFGAFAILAWNQSQYDVAIFSVAVVGAVLGFLVFNAHPAKVFMGDTGSLALGGAIVTIAILTKLEILLVIIGGVFVIETLSVILQVISFKTTGKRIFKMSPLHHHYELVGWSEWRVVVTFWAAGLLLAVLGIYIEVWL
notes: MraY translocase of B. subtilis; theoretical mass of the construct 37.88 kDa; also called Bs-MraY; B. subtilis MraY; source: cell-free (CECF, E. coli A19 lysate), co-translationally inserted into nanodiscs, purified (Streptactin)
For B2, the “stoichiometry N” value [3] was 2.

B3: Phospho-N-acetylmuramyl-pentapeptide-transferase E.coli (enzyme, E. coli, UniProt P0A6W3 1-360, looked up)
chain: MLVWLAEHLVKYYSGFNVFSYLTFRAIVSLLTALFISLWMGPRMIAHLQKLSFGQVVRNDGPESHFSKRGTPTMGGIMILTAIVISVLLWAYPSNPYVWCVLVVLVGYGVIGFVDDYRKVVRKDTKGLIARWKYFWMSVIALGVAFALYLAGKDTPATQLVVPFFKDVMPQLGLFYILLAYFVIVGTGNAVNLTDGLDGLAIMPTVFVAGGFALVAWATGNMNFASYLHIPYLRHAGELVIVCTAIVGAGLGFLWFNTYPAQVFMGDVGSLALGGALGIIAVLLRQEFLLVIMGGVFVVETLSVILQVGSFKLRGQRIFRMAPIHHHYELKGWPEPRVIVRFWIISLMLVLIGLATLKVR
notes: MraY translocase of E. coli; theoretical mass of the construct 42.22 kDa; Dimer in DMPG and in DMPC/DMPG nanodiscs, monomer in DMPC nanodiscs; also called Ec-MraY; E. coli MraY; source: cell-free (CECF, E. coli A19 lysate), co-translationally inserted into nanodiscs, purified (Streptactin)
For B3, the “stoichiometry N” value [3] was 2.

B4: Multidrug transporter EmrE (natural protein)
chain: MNPYIYLGGAILAEVIGTTLMKFSEGFTRLWPSVGTIICYCASFWLLAQTLAYIPTGIAYAIWSGVGIVLISLLSWGFFGQRLDLPAIIGMMLICAGVLIINLLSRSTPH
notes: small multidrug transporter EmrE; theoretical mass of the construct 13.00 kDa; source: cell-free (CECF, E. coli A19 lysate), co-translationally inserted into nanodiscs, purified (Streptactin)
B4 was tested, and the “stoichiometry N” value [3] was 2.

B5: Human proton channel - voltage sensing domain (domain or fragment, UniProt Q96D96 75-223, looked up)
chain: APAPGPAPRAPLDFRGMLRKLFSSHRFQVIIICLVVLDALLVLAELILDLKIIQPDKNNYAAMVFHYMSITILVFFMMEIIFKLFVFRLEFFHHKFEILDAVVVVVSFILDIVLLFQEHQFEALGLLILLRLWRVARIINGIIISVKTR
modifications: in some samples uniformly 15N, 2H isotope labeled
notes: voltage-sensing domain of the human proton channel Hv1, residues 75-223; lacks the intracellular domain; theoretical mass of the construct 20.80 kDa; Construct in pET15b described in Li et al., 2015; a C-terminal StrepII tag was added here by QuickChange mutagenesis; also called hHv1-VSD; hHv-1-VSD
B5 was tested, and the “stoichiometry N” value [4] was 2.
